Data on 9 molecules can be found in US20210230600, “NUCLEIC ACID-DRUG COMPLEX AND USE THEREOF” (Industrial Technology Research Institute, published 2021).

The term EC50 denotes the midpoint of the concentration-response curve.

Holding throughout (details): tags: HEK-Blue mouse TLR9 reporter cells, InvivoGen
The target in series [1] is T1, TLR9 (Mus musculus, UniProt Q9EQU3 Q9EQU3:26-1032).
T1 sequence: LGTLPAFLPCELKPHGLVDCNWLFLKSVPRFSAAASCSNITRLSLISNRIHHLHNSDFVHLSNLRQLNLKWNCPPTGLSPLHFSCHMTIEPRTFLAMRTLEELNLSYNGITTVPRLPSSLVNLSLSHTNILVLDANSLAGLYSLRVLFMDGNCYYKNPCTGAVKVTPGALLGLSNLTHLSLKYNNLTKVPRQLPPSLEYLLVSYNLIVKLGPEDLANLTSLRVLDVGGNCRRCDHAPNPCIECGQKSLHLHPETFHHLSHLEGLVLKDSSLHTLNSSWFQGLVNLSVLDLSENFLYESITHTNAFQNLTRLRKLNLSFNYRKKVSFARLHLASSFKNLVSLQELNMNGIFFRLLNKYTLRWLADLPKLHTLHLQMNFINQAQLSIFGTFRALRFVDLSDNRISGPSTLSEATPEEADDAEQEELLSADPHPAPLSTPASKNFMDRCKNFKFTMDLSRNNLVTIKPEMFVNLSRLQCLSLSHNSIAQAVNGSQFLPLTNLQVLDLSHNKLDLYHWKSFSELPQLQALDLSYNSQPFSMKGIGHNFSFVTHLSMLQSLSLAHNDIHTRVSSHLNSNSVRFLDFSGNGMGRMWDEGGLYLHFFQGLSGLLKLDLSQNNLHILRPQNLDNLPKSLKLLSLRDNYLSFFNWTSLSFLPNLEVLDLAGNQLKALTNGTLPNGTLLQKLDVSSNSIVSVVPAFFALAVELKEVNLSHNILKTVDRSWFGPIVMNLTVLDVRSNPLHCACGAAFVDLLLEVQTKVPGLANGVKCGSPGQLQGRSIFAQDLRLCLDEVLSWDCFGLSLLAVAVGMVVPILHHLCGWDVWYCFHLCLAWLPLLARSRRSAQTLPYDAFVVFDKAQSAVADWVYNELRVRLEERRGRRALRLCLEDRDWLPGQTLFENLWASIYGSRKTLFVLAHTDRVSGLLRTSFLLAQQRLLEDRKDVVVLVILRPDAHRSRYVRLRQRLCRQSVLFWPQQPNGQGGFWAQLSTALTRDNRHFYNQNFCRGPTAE
The series is described as follows: cell_activity; SEAP reporter activation, 37 C; 1.3 nM in FIG. 5 experiment. As for the experimental part:
(§1) HEK-Blue cells expressing mouse TLR9 (InvivoGen) were cultured in a complete DMEM medium (Dulbecco's modified Eagle's medium), which was supplemented with 100 μg/ml Normocin, 30 μg/ml Blasticidin, and 100 μg/ml Zeocin (all InvivoGen). HEK-Blue cells contained a secreted alkaline phosphatase (SEAP) reporting system, which produces colorimetric changes after interacting with TLR9.
(§2) HEK-Blue Detection mixture (cell culture medium for SEAP detection, InvivoGen) is used to detect the presence of SEAP, which is produced by stimulation of a TLR9 ligand through NF-κB activation. Detection mixture contained nutrients for cell growth and color substrate, whose color will change when it is hydrolyzed by SEAP. When HEK 293 cells expressing mouse TLR9 (InvivoGen) reached 60-80% confluency, they were collected, centrifuged and resuspended in Detection mixture. Cells (72,000) were seeded in each well of a 96-well plate (180 μl). The cells were then treated in combination with 20 μl PBS (unstimulated; as a negative control group), “CpG-L0-PS” (as a positive control group) or nucleic acid-drug complex samples of varying concentrations in PBS in duplicate wells, and incubated for 24 hours at 37° C. in 5% CO₂. The plate was read spectrophotometrically by using a multimode plate reader (Tecan, Infinite™ M200 PRO, Männedorf, Switzerland) at a wavelength of 620 nm to 655 nm.

In series [2] the target is T1, TLR9. The series is described as follows: cell_activity; SEAP reporter activation, 37 C. As for the experimental part: as §1, §2
The target in series [3] is T1, TLR9. The series is described as follows: cell_activity; SEAP reporter activation, 37 C; 5.5 nM in FIG. 5 experiment. As for the experimental part: as §1, §2
Series [4] deals with T1, TLR9. As to the kind of experiment: cell_activity; SEAP reporter activation, 37 C. As for the experimental part: as §1, §2
The experimental content is substantially the same as that of FIG. 4. The sample “CpG-L0-PS” in FIG. 5 corresponds to SEQ ID NO: 10 (which was not connected with anti-PD-L1 aptamer), and all phosphodiester bonds in the CpG oligonucleotide sequence were modified to phosphorothioate bonds.
The source holds these as a separate data set.

In series [5] the target is T1, TLR9. The series is described as follows: cell_activity; SEAP reporter activation, 37 C; 2.1 nM in FIG. 5 experiment. As for the experimental part: as §1, §2

B1: ApDC-A21B (ssDNA)
DNA: TCGAACGTTCGAACGACTCATTGATAGACAATGCGTTTCGAACGTTCGAAT
modifications: PS at all linkages of the CpG part
On to B1, for which the EC50 in the series with TLR9 [1] was 0.77 nM.

B2: PDL1-CpG29-9PS (ssDNA)
DNA: CACATCAACTCATTGATAGACAATGCGTCCTTCGAACGTTCGAACGTTCGAACGTTCGAA
modifications: PS at part of the linkages of the CpG part
As for B2, in the series with TLR9 [2], the EC50 turned out to be 149 nM.

B3: ApDC5-PS (ssDNA)
DNA: TCGAACGTTCGAACGTTCGAACGTTCGAATCACATCAACTCATTGATAGACAATGCGTCC
modifications: PS at all linkages of the CpG part
For the molecule B3, in the series with TLR9 [3], the concentration for a half-maximal effect (EC50) is 2.48 nM.

B4: ApDC5-7PS (ssDNA)
DNA: TCGAACGTTCGAACGTTCGAACGTTCGAATCACATCAACTCATTGATAGACAATGCGTCC
modifications: PS at part of the linkages of the CpG part
As to B4, the EC50 in the series with TLR9 [2] is 72.2 nM.

B5: ApDC-A21A (ssDNA)
DNA: TCGAACGTTCGAACGACTCATTGATAGACAATGCGTTCGAACGTTCGAACG
modifications: PS at all linkages of the CpG part
As for B5, in the series with TLR9 [4], the EC50 worked out at 0.6 nM.
As for TCGAACGTTCGAACGTTCGAACGTTCGAAT (ssDNA, PS at all linkages) [CpG-L0-PS], the EC50 in the series with TLR9 [5] was found to be 2.09 nM.

B6: PDL1-CpG30-PS (ssDNA)
DNA: CACATCAACTCATTGATAGACAATGCGTCCTCGAACGTTCGAACGTTCGAACGTTCGAAT
modifications: PS at all linkages of the CpG part
Consider B6, for which the EC50 with TLR9 [2] worked out at 2.36 nM.

B7: ApDC-A33B (ssDNA)
DNA: TTTCGAACGTTCGAACGCCACATCAACTCATTGATAGACAATGCGTCCACCGTTCGAACGTTCGATT
modifications: PS at part of the linkages of the CpG part
B7: the EC50 with TLR9 [4] was 16400 nM.
Same read-out and setting: in the case of TCGAACGTTCGAATACTCATTGATAGACAATGCGTTTCGAACGTTCGAAT (ssDNA, PS at all linkages of the CpG part) [ApDC-B21B] it was 0.6 nM.
